Experimental data published in article PMC7083845.

Assays:
[1] = biological target: Cub fusion of mature GENOMES UNCOUPLED 4 (GUN4) (Arabidopsis thaliana) (UniProt Q9LX31)
[2] = biological target: Cub fusion of mature GENOMES UNCOUPLED 4 (GUN4) (Arabidopsis thaliana) (UniProt Q9LX31); remark: listed apart in the source

UniProt Q9LX31, sequence (Q9LX31 70-265): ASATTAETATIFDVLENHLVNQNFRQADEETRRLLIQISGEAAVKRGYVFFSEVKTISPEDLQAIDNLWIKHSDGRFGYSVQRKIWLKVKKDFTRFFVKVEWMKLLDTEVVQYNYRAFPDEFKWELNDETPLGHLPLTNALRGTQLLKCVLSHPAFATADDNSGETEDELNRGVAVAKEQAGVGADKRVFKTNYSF

in vitro MgCh activity in 0.15 mM β-DM: 1 μM purified His-BCM1 against assays without BCM1 or with 1 μM GST [1]: 3 fold
in vitro MgCh activity with His-GUN4 and the three MgCh subunits: yeast membranes holding His-BCM1 against control membranes without BCM1 [1]: 12%
in vitro MgCh activity (MgP formed, HPLC) of recombinant MgCh subunits with His-GUN4: thylakoids from BCM1-OX3/gun4-1 against thylakoids from bcm1-3 gun4-1 seedlings [2]: 12%
Substance: NubG-BCM1 (mature BALANCE of CHLOROPHYLL METABOLISM 1) (natural protein)
